{
  "source": "paper doi:10.1101/2022.03.14.484356",
  "about": "(bioRxiv, 2022)",
  "binders": {"B1": {"name": "recombinant GST-RAB11A (natural protein, human, UniProt P62491 1-216, looked up)", "chain": "MGTRDDEYDYLFKVVLIGDSGVGKSNLLSRFTRNEFNLESKSTIGVEFATRSIQVDGKTIKAQIWDTAGQERYRAITSAYYRGAVGALLVYDIAKHLTYENVERWLKELRDHADSNIVIMLVGNKSDLRHLRAVPTDEARAFAEKNGLSFIETSALDSTNVEAAFQTILTEIYRIVSQKQMSDRRENDMSPSNNVVPIHVPPTTENKPKVQCCQNI"}},
  "biological_target": "T1, recombinant RABL3 (human, UniProt Q5HYI8 1-236)",
  "T1 sequence (looked up)": "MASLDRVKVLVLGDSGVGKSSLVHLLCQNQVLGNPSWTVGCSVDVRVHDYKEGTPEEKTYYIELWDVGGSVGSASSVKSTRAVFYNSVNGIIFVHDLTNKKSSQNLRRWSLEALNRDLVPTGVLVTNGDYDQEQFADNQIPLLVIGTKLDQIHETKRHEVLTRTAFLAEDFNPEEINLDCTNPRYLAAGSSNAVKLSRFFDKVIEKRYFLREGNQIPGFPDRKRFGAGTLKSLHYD",
  "assay": "pull-down",
  "data": [
    {"binder": "B1", "values": [
      {"measurement": "binding result", "value": "binds"}
    ]}
  ]
}
